The values below are quoted from earlier work in patent US7323168B2, “Immunotherapy for chronic myelocytic leukemia” (Immunomedics, Inc., priority 2000, dated 2008).

In the data set the test system is IFN-γ levels. Conditions: single intravenous dose 42.5 μg/kilogram, rhesus monkeys.

B1: recombinant IL-12: recombinant interleukin-12 (protein, UniProt P29459 23-219; P29460 23-328, looked up)
Interleukin-12 subunit alpha: RNLPVATPDPGMFPCLHHSQNLLRAVSNMLQKARQTLEFYPCTSEEIDHEDITKDKTSTVEACLPLELTKNESCLNSRETSFITNGSCLASRKTSFMMALCLSSIYEDLKMYQVEFKTMNAKLLMDPKRQIFLDQNMLAVIDELMQALNFNSETVPQKSSLEEPDFYKTKIKLCILLHAFRIRAVTIDRVMSYLNAS
Interleukin-12 subunit beta: IWELKKDVYVVELDWYPDAPGEMVVLTCDTPEEDGITWTLDQSSEVLGSGKTLTIQVKEFGDAGQYTCHKGGEVLSHSLLLLHKKEDGIWSTDILKDQKEPKNKTFLRCEAKNYSGRFTCWWLTTISTDLTFSVKSSRGSSDPQGVTCGAATLSAERVRGDNKEYEYSVECQEDSACPAAEESLPIEVMVDAVHKLKYENYTSSFFIRDIIKPDPPKNLQLKPLKNSRQVEVSWEYPDTWSTPHSYFSLTFCVQVQGKSKREKKDRVFTDKTSATVICRKNASISVRAQDRYYSSSWSEWASVPCS
Regarding B1, the IFN-γ levels result is “elevated”.
